{"source": "patent US20250099622A1", "about": "“COMPOSITIONS AND METHODS FOR EXPRESSING THERAPEUTICS” (priority 2022, published 2025)", "key": {"[1]": {"test_system": "retinal ganglion cells (RGC)", "assay": "NMDA excitotoxicity mouse model: RGC count by retinal Flatmount", "type": "in vivo, C57BL/6)", "details": "AAV 4E+8 vg/eye IVT 28 days prior to NMDA", "quoted_text": "This study was for evaluating the effect of adeno-associated viral (AAV) vectors on retinal ganglion cell protection following damage caused via N-methyl-D-aspartate (NMDA) administration in the mouse. […] Groups 7 and 8 were added to test a higher concentration of MK-801. […] This study was conducted in wild type mice (Mus musculus, C57BL/6).\n300 μL of the 5 mM NMDA stock was combined with 300 μL of sterile PBS and 1 μL as injected on Day 0 for a final concentration of 2.5 mM NMDA.\n300 μL of the 5 mM NMDA stock as combined with 300 μL of sterile-filtered MK-801 and 1 μL was injected on Day 0 for a final concentration of 2.5 mM NMDA/100 μM MK-801.\n300 μL of the 5 mM NMDA stock was combined with 300 μL of sterile PBS and 1 μL was injected on Day 0 for a final concentration of 2.5 mM NMDA.\nOn Day −28 or Day 0 based on the experimental design, mice were given buprenorphine 0.01-0.05 mg/kg subcutaneously (SQ). Animals were then tranquilized for the intravitreal injections with ketamine/xylazine or inhaled isoflurane and one drop of 0.5% proparacaine HCl was applied to both eyes. The conjunctiva was gently grasped with Dumont #4 forceps, and the injection was made using a 33 G needle and a Hamilton syringe. After dispensing the syringe contents, the syringe needle was slowly withdrawn. Following the injection procedure, 1 drop of Ofloxacin ophthalmic solution was applied topically to the ocular surface with eye lube.\nEyes were enucleated and immediately fixed in 4% paraformaldehyde in phosphate-buffered saline (PBS) and stored overnight at 4° C. The following day, the eyes were transferred to cold immunocytochemistry (ICC) buffer (PBS containing 0.5% BSA and 0.2% Tween 20) until processing. Using a dissecting microscope, the eye was carefully trimmed of extraneous tissue at the limbus and, using fine curved scissors, the anterior chamber was removed. Retinas in the eye cup were rinsed with cold ICC buffer. Eye cups were placed in cold ICC buffer containing 1/100 rat anti-CNP36 (Groups 3-6 only; resuspended at 0.5 mg/mL in PBS) for 3 hours at 4° C. Eye cups were then washed extensively and stained with 1/200 donkey anti-rat Cy3 and 1/1,000 DAPI for 2-3 hours at 4° C. Groups 1 and 2 were stained with 1/500 TUJ-1 and 1/1000 DAPI, while Groups 7 and 8 were incubated with 1/1,000 DAPI alone. Eye cups were washed extensively but gently with cold ICC buffer. Using fine curved scissors and an eyelash knife, the retina was detached from the optic nerve head and removed from the RPE/choroid. Radial cuts were then made toward the center and retinas were flat mounted, covered, and sealed. 2D fluorescent microscopy images were acquired using an Olympus Bx63 upright fluorescent microscope. […] Images at 20× were acquired in 4 quadrants and a central 248.1×325.7 μm region was analyzed for RGC counts using Olympus cellSens and ImageJ software.\nGroups 1 and 2 were stained with DAPI and TUJ-1 and images were captured at 20× (FIG. 10A). RGCs were counted in four quadrants, and cells/mm2 were averaged across each group.\nGroups 3-8 were stained for DAPI and four images were captured for each retina at 20× approximately 600 μm from the optic nerve head. RGCs were counted in a central 248.1×325.7 μm region and cells/mm2 were averaged over each group (FIG. 10C).\nThe statistical analyses were performed on the Group 3-8 RGC data (one-way ANOVA followed by multiple comparisons using the Dunnett statistical hypothesis comparison)."}, "[2]": {"assay": "NMDA mouse study: in-house CNP36-Fc ELISA of ocular (whole globe) and serum samples", "quoted_text": "Animals in Groups 3-6 had terminal blood collected on Day 7. IBMX was used during blood collection to inhibit phosphodiesterase activity. […] Briefly, each syringe for cardiac puncture was pre-rinsed with a stock solution of 10 mM IBMX prior to drawing blood. All mice were sedated to a deep plane of sedation under isoflurane and euthanized via exsanguination. After each syringe was pre-rinsed with 10 mM IBMX, a 25 G needle was inserted into the heart and the animal was exsanguinated and euthanized, and blood was collected. The volume of blood collected was noted on the paperwork and the appropriate volume of IBMX was added into a 1.5 mL RNAse/DNAse-free microfuge tube. […]\nBioanalytical work and the accompanying analyses were performed at the conclusion of the study. […] Left eyes (OS) from all animals (n=8) in each group receiving the different AAV constructs were analyzed. […]\nThe CNP36 and CNP-Fc36 expression in ocular (whole globes) and serum samples was quantified using the commercial CNP36 ELISA kit and in-house CNP36-Fc ELISA (Example 2), respectively. […] After a 45 min incubation, plates were washed and CNP36-Fc was detected by the addition of 3,3′,5,5′-tetramethylbenzidine (TMB) substrate. The reaction was stopped by the addition of stop solution and the plate was read immediately at 450 nm along with the reference wavelength of 600 nm. […]"}, "[3]": {"target": "T1, NPR-B receptor positive cell line, NIH/3T3 (Mus musculus, UniProt Q6VVW5)", "T1 construct": "natrieuretic peptide type C receptor B (NPR-B) positive cell line, NIH/3T3 and the negative cell line of HEK293 cells; endogenous in cells; host or cells: NIH/3T3", "T1 sequence (Q6VVW5 17-1047)": "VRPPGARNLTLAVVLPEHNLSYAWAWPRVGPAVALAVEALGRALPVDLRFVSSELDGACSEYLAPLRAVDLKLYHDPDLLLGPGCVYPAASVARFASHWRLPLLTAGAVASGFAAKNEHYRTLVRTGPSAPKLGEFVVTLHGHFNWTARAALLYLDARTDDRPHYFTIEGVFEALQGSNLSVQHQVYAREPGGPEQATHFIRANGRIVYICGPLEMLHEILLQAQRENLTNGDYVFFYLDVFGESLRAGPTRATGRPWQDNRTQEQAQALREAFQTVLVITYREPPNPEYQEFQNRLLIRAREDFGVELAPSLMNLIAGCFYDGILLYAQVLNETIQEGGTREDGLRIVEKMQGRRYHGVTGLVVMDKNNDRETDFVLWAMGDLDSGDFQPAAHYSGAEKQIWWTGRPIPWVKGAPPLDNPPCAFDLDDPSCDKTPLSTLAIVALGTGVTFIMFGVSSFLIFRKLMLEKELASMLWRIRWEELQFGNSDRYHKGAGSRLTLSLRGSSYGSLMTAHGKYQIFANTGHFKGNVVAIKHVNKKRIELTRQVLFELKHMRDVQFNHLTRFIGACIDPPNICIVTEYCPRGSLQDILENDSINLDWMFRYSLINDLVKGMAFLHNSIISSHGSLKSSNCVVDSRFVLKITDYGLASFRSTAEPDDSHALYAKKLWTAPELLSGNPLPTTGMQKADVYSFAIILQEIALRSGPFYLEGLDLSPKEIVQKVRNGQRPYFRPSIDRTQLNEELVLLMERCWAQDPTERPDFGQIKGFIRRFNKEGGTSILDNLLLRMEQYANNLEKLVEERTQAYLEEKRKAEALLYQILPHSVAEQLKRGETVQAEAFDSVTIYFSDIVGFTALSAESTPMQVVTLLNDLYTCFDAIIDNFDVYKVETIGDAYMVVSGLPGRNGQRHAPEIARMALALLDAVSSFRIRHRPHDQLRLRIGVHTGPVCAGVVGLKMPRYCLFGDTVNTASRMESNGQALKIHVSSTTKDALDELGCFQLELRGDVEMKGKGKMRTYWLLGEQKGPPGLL", "assay": "Stimulation of cGMP production in NPR-B positive cells (cGMP ELISA)", "type": "cell-based", "details": "FIG. 7A", "protocol": "The biological function of these purified protein was assayed for their stimulation of production of cGMP, using NPR-B receptor positive cell line, NIH/3T3 and NPR-B negative cell line HEK293 cells. The determination of cGMP was assay by ELISA using commercial CNP as standard curves. […] Surface preparation. NBR-B was immobilized at different levels in three flow cells via standard amine coupling, leaving Fc 1 unmodified to serve as a reference. All surface plasmon resonance (SPR) analysis was performed on a BIAcore 3000 system using series CM5 sensor chips. Data processing and analysis were performed using BIAevaluation software. All sensorgrams were double referenced by subtracting the response on a reference flow cell and a blank sample. Human NPR-B (R&D system) was covalently attached to a CM5 chip via amine coupling. A surface density of 6600 RU was used for measurements with natriuretic peptides Sequential injections of CNP (0.5-8 nM) were performed at a flow rate of […] (300 s for each), followed by a dissociation time of 900 s. […] Kinetic parameters were calculated assuming a simple 1:1 (Langmuir) binding. […] Kinetic parameters were calculated assuming a simple 1:1 (Langmuir) binding. […] Kinetic parameters were calculated assuming a simple 1:1 (Langmuir) binding. […] Kinetic parameters were calculated assuming a simple 1:1 (Langmuir) binding. […]"}, "[4]": {"test_system": "NIH3T3 cells (cGMP secreted)", "assay": "EC50 for CNP-Fc constructs, cGMP ELISA of NIH3T3 supernatant", "type": "cell-based", "details": "NIH3T3, 30 minutes, 1.8 mM IBMX, cGMP secreted by the cells; FIG. 25B", "protocol": "EC50 for CNP-Fc described herein were measured by ELISA. 2.5E+05 NIH3T3 cells/well were plated. […] After 30 minutes, supernatant was collected for cGMP determined via ELISA. FIG. 25A illustrates a standard curve of cGMP."}}}
{"substance": "AMI088: purified fusion protein Fc1-(G4S)4-CNP36 (IgG1 Fc), SEQ ID NO: 133", "values": [{"measurement": "RGC counts compared to sham AAV + NMDA group", "setting": "[1]", "result": "higher RGC counts"}, {"measurement": "CNP36-Fc expression in serum samples", "setting": "[2]; Day 7 serum", "result": "Neither CNP36-Fc nor CNP36 were expressed"}, {"measurement": "stability of CNP36-Fc in ocular samples", "setting": "[2]; mouse, in vivo", "result": "stable and thus quantifiable"}, {"measurement": "cGMP production stimulated by AAV vector encoded CNP or CNP-Fc", "setting": "[3]", "result": "highest level of cGMP"}, {"measurement": "EC50 values (rank order)", "setting": "[4]", "result": "CNP-22 ≡Fc4-CNP36>Aflibercept-Fc4-CNP36>Fc1-CNP36>>Fc4-CNP22"}]}
